Experimental findings from article PMC8164026, “Intrapulmonary administration of purified NEIL2 abrogates NF-κB–mediated inflammation” are described below.

The series has as its target His-RelA (p65) (UniProt Q04206 1-551). The series is described as follows: EMSA; EMSA: 10 mM Tris-HCl pH 7.9, 50 mM NaCl, 1 mM MgCl2, 1 mM EDTA, 5 mM DTT, 5% glycerol, 0.5 µg poly dI.dC, 2-10 µg acetylated BSA, 10 min, room temperature; gel. Conditions: protein: recombinant, tags: His, chain copies: 2.

His-RelA (p65), sequence (Q04206 whole entry): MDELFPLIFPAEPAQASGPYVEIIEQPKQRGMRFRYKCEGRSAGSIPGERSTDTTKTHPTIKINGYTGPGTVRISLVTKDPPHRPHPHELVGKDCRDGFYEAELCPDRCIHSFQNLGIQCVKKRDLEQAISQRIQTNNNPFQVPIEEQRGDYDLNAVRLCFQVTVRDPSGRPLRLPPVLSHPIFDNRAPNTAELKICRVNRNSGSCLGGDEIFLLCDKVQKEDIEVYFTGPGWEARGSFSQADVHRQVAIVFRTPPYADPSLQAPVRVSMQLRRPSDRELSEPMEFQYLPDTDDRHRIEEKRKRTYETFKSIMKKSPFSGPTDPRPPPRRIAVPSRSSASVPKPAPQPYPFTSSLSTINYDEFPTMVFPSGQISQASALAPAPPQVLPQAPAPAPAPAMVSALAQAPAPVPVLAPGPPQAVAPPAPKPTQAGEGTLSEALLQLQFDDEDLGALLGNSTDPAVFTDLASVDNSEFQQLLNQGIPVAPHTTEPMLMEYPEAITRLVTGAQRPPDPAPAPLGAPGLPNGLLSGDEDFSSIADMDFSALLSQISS

B1: IL6-M (dsDNA)
DNA 1: TTGCTATTAAATGTGTTCGTTTGTACAGAGTCTCAAAA
DNA 2: TTTTGAGACTCTGTACAAACGAACACATTTAATAGCAA
B1: the binding result (blunt) was “no binding”.

B2: C2-M (dsDNA)
DNA 1: GGACCCTGAGCTCAGAAAAGGTCCCTGGTCCACGGGCT
DNA 2: AGCCCGTGGACCAGGGACCTTTTCTGAGCTCAGGGTCC
Turning to B2, the binding result (blunt) was “no binding”.

B3: C1-M (dsDNA)
DNA 1: GAAACACCCTGTACTCCGAAAAGGTCCCTGGCCCGGAGCTCTG
DNA 2: CAGAGCTCGGGGCCAGGGACCTTTTCGGAGTACAGGGTGTTTC
Regarding B3, under “blunt as printed, one internal mismatch outside the motif (printed)”, the binding result is reported as “no binding”.
